Test [1] has as its target T1, cleaved H3 tail peptide (H3 22-37), methylated at K27 (not fully specified; also: K27 methylated, degree not given here, biotinylated, site not given here).
T1 peptide: TKAARK(Me)SAPATGGVKK
The experiment in a line: fluorescence anisotropy.

For test [2], the target named is T2, non-cleaved H3 tail peptide (H3 18-37), methylated at K27 (not fully specified; methylated K27 (degree of methylation shown only in FIG. 7C); biotinylated for the pull-down).
T2 peptide: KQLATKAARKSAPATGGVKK
As to the kind of experiment: fluorescence anisotropy.

Where no end group is shown, it is not given here.

Among the data in US20110312897A1 (published 2011) are Kd values, retold here.

B1: chromodomain of mouse CBX7 (other)
chain: MELSAIGEQVFAVESIRKKRVRKGKVEYLVKWKGWPPKYSTWEPEEHILDPRLVMAYEEKEERDRASGYR
For B1, the dissociation constant Kd in test [1] was 44 µM; in test [2], 14.5 µM.
